# In IntAct's records for PubMed 39009827:
# B1: Zinc finger protein 526 (Homo sapiens), Q8TF50 (parent)
# chain: MAEVVAEVAEMPTQMSPGAVEMSTPMSAEMMEMSTEVTEMTPGEALASSLFFQHHQFMCSECGSLYNTLEEVLSHQEQHMLAVSEEEALTTQNVGLEPELVPGAEGPFQCGECSQLILSPGELLAHQDAHLRESANQIQYQCWDCQELFPSPELWVAHRKAQHLSATVAEPPVPPPLPPPTPLPPPSPPSEVKMEPYECPECSTLCATPEEFLEHQGTHFDSLEKEERNGLEEEEEDDEEDEEDDEEMEDEEAMAEVGDDAVGGDESTAGWAQGCGDCPQHQPSAGARRQHRRTAHSPASATHPFHCSQCQRSFSSANRLQAHGRAHVGGTHECTTCSKVFKKAASLEQHLRLHRGEARYLCVDCGRGFGTELTLVAHRRAHTANPLHRCRCGKTFSNMTKFLYHRRTHAGKSGAPPTGATAPPAPAEPTPPPPPPAPPAQLPCPQCSKSFASASRLSRHRRAVHGPPERRHRCGVCGKGFKKLIHVRNHLRTHTGERPFQCHSCGKTFASLANLSRHQLTHTGARPYQCLDCGKRFTQSSNLQQHRRLHLRPVAFARAPRLPITGLYNKSPYYCGTCGRWFRAMAGLRLHQRVHARARTLTLQPPRSPSPAPPPPPEPQQTIMCTELGETIAIIETSQPLALEDTLQLCQAALGASEAGGLLQLDTAFV
# B2: Microphthalmia-associated transcription factor (Homo sapiens), O75030 (parent)
# chain: MQSESGIVPDFEVGEEFHEEPKTYYELKSQPLKSSSSAEHPGASKPPISSSSMTSRILLRQQLMREQMQEQERREQQQKLQAAQFMQQRVPVSQTPAINVSVPTTLPSATQVPMEVLKVQTHLENPTKYHIQQAQRQQVKQYLSTTLANKHANQVLSLPCPNQPGDHVMPPVPGSSAPNSPMAMLTLNSNCEKEGFYKFEEQNRAESECPGMNTHSRASCMQMDDVIDDIISLESSYNEEILGLMDPALQMANTLPVSGNLIDLYGNQGLPPPGLTISNSCPANLPNIKRELTACIFPTESEARALAKERQKKDNHNLIERRRRFNINDRIKELGTLIPKSNDPDMRWNKGTILKASVDYIRKLQREQQRAKELENRQKKLEHANRHLLLRIQELEMQARAHGLSLIPSTGLCSPDLVNRIIKQEPVLENCSQDLLQHHADLTCTTTLDLTDGTITFNNNLGTGTEANQAYSVPTKMGSKLEDILMDDTLSPVGVTDPLLSSVSPGASKTSSRRSSMSMEETEHTC
# B3: Protein patched homolog 1 (Homo sapiens), Q13635 (parent)
# chain: MASAGNAAEPQDRGGGGSGCIGAPGRPAGGGRRRRTGGLRRAAAPDRDYLHRPSYCDAAFALEQISKGKATGRKAPLWLRAKFQRLLFKLGCYIQKNCGKFLVVGLLIFGAFAVGLKAANLETNVEELWVEVGGRVSRELNYTRQKIGEEAMFNPQLMIQTPKEEGANVLTTEALLQHLDSALQASRVHVYMYNRQWKLEHLCYKSGELITETGYMDQIIEYLYPCLIITPLDCFWEGAKLQSGTAYLLGKPPLRWTNFDPLEFLEELKKINYQVDSWEEMLNKAEVGHGYMDRPCLNPADPDCPATAPNKNSTKPLDMALVLNGGCHGLSRKYMHWQEELIVGGTVKNSTGKLVSAHALQTMFQLMTPKQMYEHFKGYEYVSHINWNEDKAAAILEAWQRTYVEVVHQSVAQNSTQKVLSFTTTTLDDILKSFSDVSVIRVASGYLLMLAYACLTMLRWDCSKSQGAVGLAGVLLVALSVAAGLGLCSLIGISFNAATTQVLPFLALGVGVDDVFLLAHAFSETGQNKRIPFEDRTGECLKRTGASVALTSISNVTAFFMAALIPIPALRAFSLQAAVVVVFNFAMVLLIFPAILSMDLYRREDRRLDIFCCFTSPCVSRVIQVEPQAYTDTHDNTRYSPPPPYSSHSFAHETQITMQSTVQLRTEYDPHTHVYYTTAEPRSEISVQPVTVTQDTLSCQSPESTSSTRDLLSQFSDSSLHCLEPPCTKWTLSSFAEKHYAPFLLKPKAKVVVIFLFLGLLGVSLYGTTRVRDGLDLTDIVPRETREYDFIAAQFKYFSFYNMYIVTQKADYPNIQHLLYDLHRSFSNVKYVMLEENKQLPKMWLHYFRDWLQGLQDAFDSDWETGKIMPNNYKNGSDDGVLAYKLLVQTGSRDKPIDISQLTKQRLVDADGIINPSAFYIYLTAWVSNDPVAYAASQANIRPHRPEWVHDKADYMPETRLRIPAAEPIEYAQFPFYLNGLRDTSDFVEAIEKVRTICSNYTSLGLSSYPNGYPFLFWEQYIGLRHWLLLFISVVLACTFLVCAVFLLNPWTAGIIVMVLALMTVELFGMMGLIGIKLSAVPVVILIASVGIGVEFTVHVALAFLTAIGDKNRRAVLALEHMFAPVLDGAVSTLLGVLMLAGSEFDFIVRYFFAVLAILTILGVLNGLVLLPVLLSFFGPYPEVSPANGLNRLPTPSPEPPPSVVRFAMPPGHTHSGSDSSDSEYSSQTTVSGLSEELRHYEAQQGAGGPAHQVIVEATENPVFAHSTVVHPESRHHPPSNPRQQPHLDSGSLPPGRQGQQPRRDPPREGLWPPPYRPRRDAFEISTEGHSGPSNRARWGPRGARSHNPRNPASTAMGSSVPGYCQPITTVTASASVTVAVHPPPVPGPGRNPRGGLCPGYPETDHGLFEDPHVPFHVRCERRDSKVEVIELQDVECEERPRGSSSN
# Variants of: B1
# Conditions: with ima3_human KPNA4, O00629
# Sequence of ima3_human KPNA4, O00629 (O00629 whole entry): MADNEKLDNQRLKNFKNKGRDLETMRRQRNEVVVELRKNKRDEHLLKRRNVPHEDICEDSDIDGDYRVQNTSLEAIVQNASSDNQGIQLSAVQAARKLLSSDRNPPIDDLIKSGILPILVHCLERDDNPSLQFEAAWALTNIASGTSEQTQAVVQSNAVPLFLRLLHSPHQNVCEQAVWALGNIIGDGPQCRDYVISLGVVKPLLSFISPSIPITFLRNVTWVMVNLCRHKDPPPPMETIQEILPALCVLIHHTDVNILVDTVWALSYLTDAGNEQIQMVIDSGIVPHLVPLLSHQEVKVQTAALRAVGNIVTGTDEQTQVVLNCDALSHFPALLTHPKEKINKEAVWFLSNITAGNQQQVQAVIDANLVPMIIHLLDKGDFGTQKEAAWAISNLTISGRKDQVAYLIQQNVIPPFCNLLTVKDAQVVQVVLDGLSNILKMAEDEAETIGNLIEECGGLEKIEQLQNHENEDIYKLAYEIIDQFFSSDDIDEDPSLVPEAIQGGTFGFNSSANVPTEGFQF
row,effect of a mutation on the interaction,Variant
1,disrupting interaction strength,K160T

# Variants of: B1
# Conditions: with ima3_human KPNA4, O00629
# Remark: another data set of the same source
row,effect of a mutation on the interaction,Variant
1,decreasing interaction strength,K160T

# Variants of: B2
# Conditions: with clh1_human CLTC
row,effect of a mutation on the interaction,Variant
1,with no effect,MQSESGIVPDFEVGEEFHEEPKTYYELKSQPLKSSSSAEHPGASKPPISSSSMTSRILLRQQLMREQMQEQERREQQQKLQAAQFMQQRVPVSQTPAINVSVPTTLPSATQVPMEVLKVQTHLENPTKYHIQQAQRQQVKQYLSTTLANKHANQVLSLPCPNQPGDHVMPPVPGSSAPNSPMAMLTLNSNCEKEGFYKFEEQNRAESECPGMNTHSRASCMQMDDVIDDIISLESSYNEEILGLMDPALQMANTLPVSGNLIDLCGNQGLPPPGLTISNSCPANLPNIKRELTACIFPTESEARALAKERQKKDNHNLIERRRRFNINDRIKELGTLIPKSNDPDMRWNKGTILKASVDYIRKLQREQQRAKELENRQKKLEHANRHLLLRIQELEMQARAHGLSLIPSTGLCSPDLVNRIIKQEPVLENCSQDLLQHHADLTCTTTLDLTDGTITFNNNLGTGTEANQAYSVPTKMGSKLEDILMDDTLSPVGVTDPLLSSVSPGASKTSSRRSSMSMEETEHTC [Y265C]

# Variants of: B3
# Conditions: with ppia_human PPIA
row,effect of a mutation on the interaction,Variant
1,decreasing interaction strength,P1180Q
